Source: patent US20080213817

Key:
[1] = test system: GST-c-Jun fusion protein [GST: P08515]
E3 ubiquitin ligase Itch = E3 ubiquitin ligase Itch (UniProt Q8C863)
Chain of E3 ubiquitin ligase Itch (UniProt Q8C863) (Q8C863 2-864): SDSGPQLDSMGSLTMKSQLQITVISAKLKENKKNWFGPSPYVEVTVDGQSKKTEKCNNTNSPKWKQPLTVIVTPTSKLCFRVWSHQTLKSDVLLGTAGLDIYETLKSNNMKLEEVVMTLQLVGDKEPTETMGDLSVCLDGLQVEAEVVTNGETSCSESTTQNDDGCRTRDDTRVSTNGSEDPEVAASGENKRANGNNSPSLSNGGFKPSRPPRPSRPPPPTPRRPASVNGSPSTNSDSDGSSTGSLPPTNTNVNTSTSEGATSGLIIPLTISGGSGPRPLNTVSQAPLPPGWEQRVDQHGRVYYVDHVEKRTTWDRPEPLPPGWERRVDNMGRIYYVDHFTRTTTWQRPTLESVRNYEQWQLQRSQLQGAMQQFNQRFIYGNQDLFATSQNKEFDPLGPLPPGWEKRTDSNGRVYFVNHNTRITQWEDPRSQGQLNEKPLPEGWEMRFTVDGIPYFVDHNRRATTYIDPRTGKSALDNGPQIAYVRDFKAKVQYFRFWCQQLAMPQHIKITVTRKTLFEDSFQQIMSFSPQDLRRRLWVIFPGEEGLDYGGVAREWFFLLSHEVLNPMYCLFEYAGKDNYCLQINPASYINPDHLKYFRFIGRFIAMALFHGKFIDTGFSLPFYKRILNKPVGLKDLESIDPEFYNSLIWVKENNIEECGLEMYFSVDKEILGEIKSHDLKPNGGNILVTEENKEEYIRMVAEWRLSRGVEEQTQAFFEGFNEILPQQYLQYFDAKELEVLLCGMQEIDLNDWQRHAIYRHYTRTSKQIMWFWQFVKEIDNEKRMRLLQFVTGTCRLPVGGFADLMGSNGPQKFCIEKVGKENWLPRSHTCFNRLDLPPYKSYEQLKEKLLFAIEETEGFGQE

Chain of E3 ubiquitin ligase Itch (chain, as listed by the source): as the sequence (Q8C863 2-864) above
Chain of GST-c-Jun fusion protein [GST: P08515] (P08515 whole entry, looked up, the tested form may be a part): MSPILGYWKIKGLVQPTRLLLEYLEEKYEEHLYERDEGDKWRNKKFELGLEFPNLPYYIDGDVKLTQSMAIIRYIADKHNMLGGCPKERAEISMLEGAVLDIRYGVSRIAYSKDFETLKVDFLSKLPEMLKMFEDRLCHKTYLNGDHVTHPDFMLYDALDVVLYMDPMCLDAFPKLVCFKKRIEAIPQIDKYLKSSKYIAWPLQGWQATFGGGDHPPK

| Substance | polyubiquitination of c-Jun (in vitro ubiquitination assay, immunoblot with anti-c-Jun) [1] | Itch phosphorylation (in vitro kinase reaction with [gamma-32P]ATP, autoradiography) (E3 ubiquitin ligase Itch) |
| --- | --- | --- |
| E3 ubiquitin ligase Itch | Itch isolated from primary T cells mediated polyubiquitination of c-Jun in a manner dependent on E1 and E2 | – |
| c-Jun N-terminal kinase 1 (JNK1), active | – | Incubation of Itch with active JNK1 also led to its efficient phosphorylation |
